Drawing on patent publication US20100291682, “SYSTEM FOR TRANSPOSING HYPERACTIVE RECOMBINANT DERIVATIVES OF MOS-1 TRANSPOSON” (published 2010), this text covers activity for one molecule.

Holding throughout (assay): cell_activity; 3T46 transposition in E. coli T5 vs 3T3/WT
What all share (conditions): chain copies: 2

In one data set the target is T1, Mos-1 transposase FT (Drosophila mauritiana, UniProt Q7JQ07 SEQ:1-345, F53Y,T216A).
T1 sequence: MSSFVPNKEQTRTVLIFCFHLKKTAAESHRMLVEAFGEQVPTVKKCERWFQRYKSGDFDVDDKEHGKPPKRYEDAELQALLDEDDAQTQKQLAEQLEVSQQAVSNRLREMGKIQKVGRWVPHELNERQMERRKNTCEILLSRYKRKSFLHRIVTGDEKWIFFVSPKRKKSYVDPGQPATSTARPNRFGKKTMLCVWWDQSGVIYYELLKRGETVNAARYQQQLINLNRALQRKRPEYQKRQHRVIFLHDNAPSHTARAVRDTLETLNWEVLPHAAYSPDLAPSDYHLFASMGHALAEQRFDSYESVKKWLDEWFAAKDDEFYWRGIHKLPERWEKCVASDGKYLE
The procedure:
(§1) Escherichia coli JM109 bacteria were co-transformed with the pBC 3T3 plasmid (comprising a transposition reporter 2 ITR 3′ mariner-like element and the chloramphenicol resistance gene) and with the inducible vector encoding for the transposase (pKK-Tnp or pMal-Tnp) comprising the ampicillin resistance gene. The bacteria selection was performed on ampicillin (100 μg/ml) and chloramphenicol in order to verify the presence of the two plasmids.
(§2) The JM109 bacteria containing both the pBC 3T3 plasmid and the pKK-Tnp (or pMalC2X-Tnp) plasmid were placed in culture for 1 hr at 37° C. in 250 μl of LB. This inoculum was then poured into 5 ml of LB supplemented with 1 mM IPTG. The culture was titrated on LB plates (100 μl of a 1/1000 dilution) and on LB-Tet plates (12.5 μg/ml) (250 μl of the non-diluted culture). The culture induced by IPTG was then cultured for 5 hours at 32° C. (optimal temperature of transposase) under stirring (250 rpm). The bacterial suspension was then titrated on LB plates (100 μl of a 1/250,000 dilution) and on LB-tet plates (100 μl of the undiluted bacterial suspension). The plates were placed at 37° C. overnight. The following day, the colonies were counted on LB and LB-Tet plates, and the transposition frequency (equal to the number of tetracycline bacteria over the number of bacterial per 1 ml of undiluted bacterial suspension) was calculated.
(§3) In order to evaluate the transposition efficiency of systems associating a hyperactive transposase and a pseudo-transposon that is also hyperactive, various combinations were tested in the transposition test in bacteria described in part I, paragraph I-B above.

In the next data set the target is T2, Mos-1 transposase FQ (Drosophila mauritiana, UniProt Q7JQ07 SEQ:1-345, F53Y,Q91R).
T2 sequence: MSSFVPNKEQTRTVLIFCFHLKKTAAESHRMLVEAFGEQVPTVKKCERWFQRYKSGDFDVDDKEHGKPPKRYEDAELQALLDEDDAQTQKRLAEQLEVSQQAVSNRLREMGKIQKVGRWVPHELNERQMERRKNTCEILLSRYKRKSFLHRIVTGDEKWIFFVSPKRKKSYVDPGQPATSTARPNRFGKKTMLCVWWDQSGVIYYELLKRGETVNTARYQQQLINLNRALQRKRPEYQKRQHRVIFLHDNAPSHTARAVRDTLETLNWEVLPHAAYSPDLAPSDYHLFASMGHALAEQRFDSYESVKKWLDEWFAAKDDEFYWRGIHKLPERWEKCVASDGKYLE
The procedure:
as §1, §2, §3

In a further data set the target is T3, Mos-1 transposase FETY (Drosophila mauritiana, UniProt Q7JQ07 SEQ:1-345, F53Y,E137K,T216A,Y237C).
T3 sequence: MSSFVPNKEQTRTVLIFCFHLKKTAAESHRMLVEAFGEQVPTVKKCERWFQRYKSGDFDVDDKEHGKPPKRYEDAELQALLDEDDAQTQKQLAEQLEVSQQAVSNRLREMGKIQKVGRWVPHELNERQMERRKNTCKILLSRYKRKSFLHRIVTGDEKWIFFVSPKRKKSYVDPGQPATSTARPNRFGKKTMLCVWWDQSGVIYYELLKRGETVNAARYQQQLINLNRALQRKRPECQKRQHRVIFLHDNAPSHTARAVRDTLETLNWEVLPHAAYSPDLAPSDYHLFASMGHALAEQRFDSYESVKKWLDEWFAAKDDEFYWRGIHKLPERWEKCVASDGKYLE
As for the experimental part: as §1, §2, §3

The target in the next data set is T4, Mos-1 transposase QY (Drosophila mauritiana, UniProt Q7JQ07 SEQ:1-345, Q91R,Y237C).
T4 sequence: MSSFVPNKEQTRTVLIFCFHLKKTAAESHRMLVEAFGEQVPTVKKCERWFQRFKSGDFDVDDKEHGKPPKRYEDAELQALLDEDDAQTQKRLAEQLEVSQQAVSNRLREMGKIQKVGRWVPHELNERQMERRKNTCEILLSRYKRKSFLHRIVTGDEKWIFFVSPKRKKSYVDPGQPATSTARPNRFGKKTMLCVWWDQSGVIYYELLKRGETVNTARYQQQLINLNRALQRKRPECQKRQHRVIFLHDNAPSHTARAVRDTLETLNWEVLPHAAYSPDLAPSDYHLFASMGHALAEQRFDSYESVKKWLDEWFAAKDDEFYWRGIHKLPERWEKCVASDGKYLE
The procedure:
as §1, §2, §3

For a further data set, the target named is T5, Mos-1 transposase TY (Drosophila mauritiana, UniProt Q7JQ07 SEQ:1-345, T216A,Y237C).
T5 sequence: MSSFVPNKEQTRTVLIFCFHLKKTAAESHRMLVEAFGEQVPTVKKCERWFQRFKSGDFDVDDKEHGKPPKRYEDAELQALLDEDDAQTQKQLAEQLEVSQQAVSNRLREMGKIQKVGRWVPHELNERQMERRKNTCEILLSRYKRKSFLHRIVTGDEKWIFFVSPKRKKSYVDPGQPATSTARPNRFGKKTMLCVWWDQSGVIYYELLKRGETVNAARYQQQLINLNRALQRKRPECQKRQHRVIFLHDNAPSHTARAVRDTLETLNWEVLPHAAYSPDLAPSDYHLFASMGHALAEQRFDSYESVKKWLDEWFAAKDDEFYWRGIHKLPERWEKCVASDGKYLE
As for the experimental part:
as §1, §2, §3

B1: ITR46 (dsDNA)
DNA 1: TCAGGTGTACAAGTATGAGATGTCGTTT
DNA 2: AAACGACATCTCATACTTGTACACCTGA
Consider B1, for which the activity with Mos-1 transposase FT is 3.7 fold; in the data set with Mos-1 transposase FQ, 3.3 fold; with Mos-1 transposase FETY, 2 fold; with Mos-1 transposase QY, 1.7 fold; in the data set with Mos-1 transposase TY, 61.8 fold.
